Earlier results, collected in article PMC3145095.

Target: CD8αα (Mus musculus) (UniProt P01731)
Chain of UniProt P01731 (P01731 28-196): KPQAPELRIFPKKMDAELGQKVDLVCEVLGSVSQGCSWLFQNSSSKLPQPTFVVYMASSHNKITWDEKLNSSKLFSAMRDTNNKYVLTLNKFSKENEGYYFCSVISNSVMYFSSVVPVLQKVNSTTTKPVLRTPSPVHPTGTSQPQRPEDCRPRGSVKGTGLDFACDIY

**Q.** With “Thymus leukaemia antigen (TL) (from UniProt P14432)” as the substance, how does the Kd read?
**A.** Its Kd is 12 µM.
